System: OC[C@H]1O[C@H](O[C@H]2O[C@H](CO)[C@@H](O)[C@H](O)[C@H]2O)[C@H](O)[C@@H](O)[C@@H]1O
Assay: purified protein
Settings: 25 °C, Glucose Liquiform kit solution, 0.03125-4 mM trehalose

Xcc TreA (recombinant Xcc trehalase) (Xanthomonas citri subsp. citri 306)
Km: 77 µM

Reference: publication PMC5017680, “treA Codifies for a Trehalase with Involvement in Xanthomonas citri subsp. citri Pathogenicity” (PLoS ONE, 2016)
